Among the data in patent US5147794 are activity (units per gram of cells) values, retold here.

This series deals with KasI restriction endonuclease (recombinant, cell extract) (Kluyvera ascorbata). Description: cleavage_in_vitro. The conditions noted are these: lambda DNA, 37 C, 1 h; nearly 10^6.

Turning to “GGCGCC (double strand) [KasI recognition site (lambda DNA)]”, the activity (units per gram of cells) came out at 1e+06.
